Measurements as given in patent US20090252724A1 (Hoffmann-La Roche, published 2009).

How the values were obtained:
Aβ1-40 fibers [1] = target: T1, Aβ1-40 fibers (human); test: SPR (Biacore), Aβ1-40 fibers on CM5, Scatchard; high affinity (bivalent) KD; extrapolated equilibrium responses; stdev 0.10
T1 construct: Synthetic peptide aggregated to fibers in vitro (200 µg/ml, 10 mM Na-acetate pH 4.0, 3 days, 37 °C) and coupled to a CM5 chip; also called Aβ1-40 fibrils; fibrillar Aβ40
Procedure: (§1) Binding of ANTIBODY A to fibrillar Aβ was measured online by surface plasmon resonance (SPR), and the affinities of the molecular interactions were determined as follows: Biacore2000 and Biacore3000 instruments were used for these measurements. Aβ1-40 and Aβ1-42 fibers were generated in vitro by incubation of synthetic peptides at a concentration of 200 μg/ml in 10 mM Na-acetate buffer (pH 4.0) for three days at 37° C. Electron microscopic analysis confirmed a fibrillar structure for both peptides, Aβ1-40 showing predominantly shorter (<1 micron) and Aβ1-42 predominantly longer (>1 micron) fibers. […]
(§2) This coupling procedure included an activation step, during which the carboxylic acid groups on the surface were transferred into chemically reactive succinimide ester groups by contacting the surface with an aqueous mixture of N-hydroxysuccinimide and 1-ethyl-1-(3-[…])-carbodiimide hydrochloride, and an immobilization step, during which the activated surface was contacted with the fibres dissolved in 10 mM acetate buffer (pH 4.5) at 200-350 resonance units (1 resonance unit (RU) corresponds approximately to a surface loading of 1 picogram/mm²). […] Typical time dependent response curves (=sensograms) monitored during the association phase (during contact with buffer) and the dissociation phase (subsequent contact with buffer) are shown in FIG. 7. […]

Aβ1-40 fibers [2] = target: T1, Aβ1-40 fibers; test: SPR (Biacore), Aβ1-40 fibers on CM5, Scatchard; low affinity (monovalent) KD; extrapolated equilibrium responses; stdev 8.40
Procedure: as §1, §2

Aβ1-40 fibers [3] = target: T1, Aβ1-40 fibers; test: SPR (Biacore), Aβ1-40 fibers on CM5, Scatchard; high affinity (bivalent) KD; experimental equilibrium responses
Procedure: (§3) Binding of ANTIBODY A to fibrillar Aβ was measured online by surface plasmon resonance (SPR), and the affinities of the molecular interactions were determined as follows: Biacore2000 and Biacore3000 instruments were used for these measurements. Aβ1-40 and Aβ1-42 fibers were generated in vitro by incubation of synthetic peptides at a concentration of 200 μg/ml in 10 mM Na-acetate buffer (pH 4.0) for three days at 37° C. Electron microscopic analysis confirmed a fibrillar structure for both peptides, Aβ1-40 showing predominantly shorter (<1 micron) and Aβ1-42 predominantly longer (>1 micron) fibers. These fibers were assumed to represent aggregated Aβ peptides in human AD brain more closely than ill-defined mixtures of amorphous aggregates and unstructured precipitates. The fibers were diluted 1:10 and directly coupled to a CM5 as described in the Instruction Manual of the manufacturer (BIAapplication Handbook, version AB, Biacore AB, Uppsala, 1998).
(§4) This coupling procedure included an activation step, during which the carboxylic acid groups on the surface were transferred into chemically reactive succinimide ester groups by contacting the surface with an aqueous mixture of N-hydroxysuccinimide and 1-ethyl-1-(3-[…])-carbodiimide hydrochloride, and an immobilization step, during which the activated surface was contacted with the fibres dissolved in 10 mM acetate buffer (pH 4.5) at 200-350 resonance units (1 resonance unit (RU) corresponds approximately to a surface loading of 1 picogram/mm²). The fiber loaded surface was then contacted with the antibody solutions in the concentration range 200 nM≧C≧0.15 nM. Typical time dependent response curves (=sensograms) monitored during the association phase (during contact with buffer) and the dissociation phase (subsequent contact with buffer) are shown in FIG. 7.
(§5) Briefly, KD values were calculated by Scatchard type analysis using concentration dependent equilibrium binding responses. These equilibrium binding constants could be obtained in two ways.

Aβ1-40 fibers [4] = target: T1, Aβ1-40 fibers; test: SPR (Biacore), Aβ1-40 fibers on CM5, Scatchard; low affinity (monovalent) KD; experimental equilibrium responses
Procedure: as §3, §4, §5

Aβ1-40 fibers [5] = target: T1, Aβ1-40 fibers; test: SPR (Biacore), Aβ1-40 fibers on CM5, Scatchard; high affinity (bivalent) KD; extrapolated equilibrium responses; stdev 0.03
Procedure: as §1, §2

Aβ1-40 fibers [6] = target: T1, Aβ1-40 fibers; test: SPR (Biacore), Aβ1-40 fibers on CM5, Scatchard; low affinity (monovalent) KD; extrapolated equilibrium responses; stdev 0.15
Procedure: as §1, §2

Aβ1-40 fibers [7] = target: T1, Aβ1-40 fibers; test: SPR (Biacore), Aβ1-40 fibers on CM5, Scatchard; high affinity (bivalent) KD; extrapolated equilibrium responses; stdev 0.02
Procedure: as §1, §2

Aβ1-40 fibers [8] = target: T1, Aβ1-40 fibers; test: SPR (Biacore), Aβ1-40 fibers on CM5, Scatchard; low affinity (monovalent) KD; extrapolated equilibrium responses; stdev 22.33
Procedure: as §1, §2

B1: ANTIBODY A COMPOSITION (mixture of mono- and double-glycosylated ANTIBODY A) (antibody, human IgG1, kappa, V domains shown)
VH: QVELVESGGGLVQPGGSLRLSCAASGFTFSSYAMSWVRQAPGKGLEWVSAINASGTRTYYADSVKGRFTISRDNSKNTLYLQMNSLRAEDTAVYYCARGKGNTHKPYGYVRYFDVWGQGTLVTVSS
VL: DIVLTQSPATLSLSPGERATLSCRASQSVSSSYLAWYQQKPGQAPRLLIYGASSRATGVPARFSGSGSGTDFTLTISSLEPEDFATYYCLQIYNMPITFGQGTKVEIKR
modifications: N-linked glycan at Asn52 (VH CDR2) on one or on both heavy chains (mixture of the two isoforms); N-linked glycan at Asn306 (Fc)
notes: also called Mixture of mono- and double-glycosylated ANTIBODY A isoforms (1:1)
Kd (Aβ1-40 fibers [1]): 0.49 nM | Kd (Aβ1-40 fibers [2]): 27.2 nM | Kd (Aβ1-40 fibers [3]): 0.41 nM | Kd (Aβ1-40 fibers [4]): 21 nM

B2: non-glycosylated ANTIBODY A (antibody, human IgG1, kappa, V domains shown)
VH: QVELVESGGGLVQPGGSLRLSCAASGFTFSSYAMSWVRQAPGKGLEWVSAINASGTRTYYADSVKGRFTISRDNSKNTLYLQMNSLRAEDTAVYYCARGKGNTHKPYGYVRYFDVWGQGTLVTVSS
VL: DIVLTQSPATLSLSPGERATLSCRASQSVSSSYLAWYQQKPGQAPRLLIYGASSRATGVPARFSGSGSGTDFTLTISSLEPEDFATYYCLQIYNMPITFGQGTKVEIKR
modifications: Asn52 not glycosylated; N-linked glycan at Asn306 (Fc)
notes: Human IgG1 kappa, made in CHO cells; no glycan in the variable region; also called non-glycosylated ANTIBODY A isoform; non-glycosylated isoform
Kd (Aβ1-40 fibers [5]): 0.19 nM | Kd (Aβ1-40 fibers [3]): 0.42 nM | Kd (Aβ1-40 fibers [6]): 1.99 nM | Kd (Aβ1-40 fibers [4]): 2.82 nM

B3: double-glycosylated ANTIBODY A (antibody, human IgG1, kappa, V domains shown)
VH: QVELVESGGGLVQPGGSLRLSCAASGFTFSSYAMSWVRQAPGKGLEWVSAINASGTRTYYADSVKGRFTISRDNSKNTLYLQMNSLRAEDTAVYYCARGKGNTHKPYGYVRYFDVWGQGTLVTVSS
VL: DIVLTQSPATLSLSPGERATLSCRASQSVSSSYLAWYQQKPGQAPRLLIYGASSRATGVPARFSGSGSGTDFTLTISSLEPEDFATYYCLQIYNMPITFGQGTKVEIKR
modifications: N-linked glycan at Asn52 (VH CDR2) on both heavy chains; N-linked glycan at Asn306 (Fc)
notes: Human IgG1 kappa, made in CHO cells, separated by cation exchange chromatography; also called double-glycosylated ANTIBODY A isoform; double-glycosylated isoform
Kd (Aβ1-40 fibers [7]): 1.43 nM | Kd (Aβ1-40 fibers [8]): 18.5 nM | Kd (Aβ1-40 fibers [3]): 1.54 nM | Kd (Aβ1-40 fibers [4]): 29 nM
